Assay results reported in patent US10500249B2, “Compositions and methods for preventing or treating diseases, conditions, or processes characterized by aberrant fibroblast proliferation and extracellular matrix deposition” (MOERAE MATRIX, INC., priority 2014, dated 2019).

How the values were obtained:
Test in all cases: Kinase Profiling Assay
Assay type in all cases: biochemical
Details in all cases: 100 μM
PhKγ2 (h) = target: T1, PhKγ2 (h) (Homo sapiens, UniProt P15735)
T1 construct: purchased Millipore
T1 sequence (P15735 1-406): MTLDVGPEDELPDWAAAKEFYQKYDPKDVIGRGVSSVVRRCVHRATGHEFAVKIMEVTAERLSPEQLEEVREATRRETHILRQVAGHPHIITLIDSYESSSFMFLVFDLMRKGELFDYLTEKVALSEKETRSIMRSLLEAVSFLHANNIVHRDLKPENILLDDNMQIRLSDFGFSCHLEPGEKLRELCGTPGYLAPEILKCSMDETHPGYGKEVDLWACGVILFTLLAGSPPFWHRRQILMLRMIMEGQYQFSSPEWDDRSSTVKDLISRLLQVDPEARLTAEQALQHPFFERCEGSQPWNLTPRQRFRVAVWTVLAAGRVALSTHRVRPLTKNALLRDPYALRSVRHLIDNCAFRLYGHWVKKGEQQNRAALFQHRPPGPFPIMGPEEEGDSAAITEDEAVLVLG
In short: (§1)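 Scintillation counting quantifies radiolabeled, positively charged substrate retained on a negatively charged filter after kinase reaction with labeled ATP; inhibitor peptide present.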

ALK4 (h) = target: T2, ALK4 (h) (Homo sapiens, UniProt P36896)
T2 sequence (P36896 24-505): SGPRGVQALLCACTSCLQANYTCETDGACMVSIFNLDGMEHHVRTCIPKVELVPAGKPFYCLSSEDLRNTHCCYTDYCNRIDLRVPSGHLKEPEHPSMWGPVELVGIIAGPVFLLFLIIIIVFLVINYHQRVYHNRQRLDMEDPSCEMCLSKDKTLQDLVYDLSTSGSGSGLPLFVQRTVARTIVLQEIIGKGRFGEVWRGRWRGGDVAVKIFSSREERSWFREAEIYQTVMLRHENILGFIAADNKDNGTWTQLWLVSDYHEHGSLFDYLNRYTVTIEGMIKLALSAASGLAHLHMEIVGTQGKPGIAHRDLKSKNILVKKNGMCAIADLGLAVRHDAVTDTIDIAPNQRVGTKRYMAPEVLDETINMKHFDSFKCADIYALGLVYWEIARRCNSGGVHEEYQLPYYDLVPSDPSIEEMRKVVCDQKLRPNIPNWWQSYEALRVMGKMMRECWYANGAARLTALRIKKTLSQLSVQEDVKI
In short: as §1

PKCβI (h) = target: T3, PKCβI (h) (Homo sapiens, UniProt P05771)
T3 construct: purchased Millipore
T3 sequence (P05771 whole entry): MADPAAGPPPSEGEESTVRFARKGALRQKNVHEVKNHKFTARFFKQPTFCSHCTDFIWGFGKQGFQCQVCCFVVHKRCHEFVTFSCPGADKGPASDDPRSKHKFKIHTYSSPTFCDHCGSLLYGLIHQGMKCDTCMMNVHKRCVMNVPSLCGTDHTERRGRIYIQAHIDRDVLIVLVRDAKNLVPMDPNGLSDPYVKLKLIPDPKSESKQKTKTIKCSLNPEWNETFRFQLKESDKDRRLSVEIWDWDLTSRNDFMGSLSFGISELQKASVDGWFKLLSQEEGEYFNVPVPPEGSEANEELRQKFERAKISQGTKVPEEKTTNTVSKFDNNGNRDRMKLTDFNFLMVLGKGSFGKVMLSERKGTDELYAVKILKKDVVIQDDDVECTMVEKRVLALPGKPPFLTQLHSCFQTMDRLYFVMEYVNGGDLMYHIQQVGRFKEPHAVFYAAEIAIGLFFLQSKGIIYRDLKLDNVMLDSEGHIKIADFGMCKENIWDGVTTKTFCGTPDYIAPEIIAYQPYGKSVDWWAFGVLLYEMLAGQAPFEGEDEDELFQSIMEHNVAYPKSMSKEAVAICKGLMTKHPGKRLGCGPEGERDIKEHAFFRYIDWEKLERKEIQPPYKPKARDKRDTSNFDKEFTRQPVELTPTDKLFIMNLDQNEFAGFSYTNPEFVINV
In short: as §1

SAPK3 (h) = target: T4, SAPK3 (h) (Homo sapiens, UniProt P53778)
T4 sequence (P53778 1-367): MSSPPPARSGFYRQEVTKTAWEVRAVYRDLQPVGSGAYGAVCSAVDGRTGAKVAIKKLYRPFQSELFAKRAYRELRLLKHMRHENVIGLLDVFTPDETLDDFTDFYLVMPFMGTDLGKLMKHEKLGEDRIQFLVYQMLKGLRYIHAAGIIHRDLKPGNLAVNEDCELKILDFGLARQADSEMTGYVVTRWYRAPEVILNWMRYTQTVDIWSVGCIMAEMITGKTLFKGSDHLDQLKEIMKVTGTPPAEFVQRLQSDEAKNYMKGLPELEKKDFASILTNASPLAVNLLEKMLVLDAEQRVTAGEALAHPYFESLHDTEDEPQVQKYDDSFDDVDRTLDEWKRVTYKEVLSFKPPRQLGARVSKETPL
In short: as §1

Flt1 (h) = Flt1 (h) (Homo sapiens, UniProt P17948)
Flt1 (h), sequence (P17948 27-1338): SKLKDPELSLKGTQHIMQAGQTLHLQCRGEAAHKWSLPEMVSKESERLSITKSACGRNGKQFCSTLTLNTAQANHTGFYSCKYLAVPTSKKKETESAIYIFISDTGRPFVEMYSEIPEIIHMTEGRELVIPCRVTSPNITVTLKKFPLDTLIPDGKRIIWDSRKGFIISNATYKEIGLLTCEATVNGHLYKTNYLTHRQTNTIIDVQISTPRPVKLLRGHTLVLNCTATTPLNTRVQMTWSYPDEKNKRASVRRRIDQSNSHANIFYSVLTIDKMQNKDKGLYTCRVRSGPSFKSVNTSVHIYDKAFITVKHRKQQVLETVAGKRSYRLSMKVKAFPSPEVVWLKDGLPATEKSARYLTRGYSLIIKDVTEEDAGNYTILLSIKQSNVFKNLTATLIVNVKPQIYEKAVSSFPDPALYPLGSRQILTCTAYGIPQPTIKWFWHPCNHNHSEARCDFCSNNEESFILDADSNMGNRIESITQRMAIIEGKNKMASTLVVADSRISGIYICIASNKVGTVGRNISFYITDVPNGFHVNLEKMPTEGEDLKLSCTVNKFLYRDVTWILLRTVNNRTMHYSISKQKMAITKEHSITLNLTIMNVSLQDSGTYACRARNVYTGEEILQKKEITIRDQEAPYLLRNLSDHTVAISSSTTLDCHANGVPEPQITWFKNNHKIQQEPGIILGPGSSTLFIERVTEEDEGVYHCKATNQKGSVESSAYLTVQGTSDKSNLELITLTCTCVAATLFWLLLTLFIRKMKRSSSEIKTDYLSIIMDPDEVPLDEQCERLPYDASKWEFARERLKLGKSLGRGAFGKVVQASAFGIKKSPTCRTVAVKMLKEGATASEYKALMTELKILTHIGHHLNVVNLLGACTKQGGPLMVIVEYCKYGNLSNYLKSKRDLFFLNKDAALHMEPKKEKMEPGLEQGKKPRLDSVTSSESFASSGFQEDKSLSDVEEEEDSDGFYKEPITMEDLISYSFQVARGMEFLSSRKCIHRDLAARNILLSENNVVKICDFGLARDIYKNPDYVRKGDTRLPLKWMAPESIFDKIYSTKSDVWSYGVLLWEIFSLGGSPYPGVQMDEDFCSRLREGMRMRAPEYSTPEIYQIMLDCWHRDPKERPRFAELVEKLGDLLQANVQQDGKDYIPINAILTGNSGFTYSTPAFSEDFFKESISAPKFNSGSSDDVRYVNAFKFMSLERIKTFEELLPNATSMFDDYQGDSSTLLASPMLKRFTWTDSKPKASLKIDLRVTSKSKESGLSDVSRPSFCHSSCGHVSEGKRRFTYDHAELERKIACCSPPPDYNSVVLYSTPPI
In short: as §1

SRPK1 (h) = SRPK1 (h) (Homo sapiens, UniProt Q96SB4)
SRPK1 (h), sequence (Q96SB4 whole entry): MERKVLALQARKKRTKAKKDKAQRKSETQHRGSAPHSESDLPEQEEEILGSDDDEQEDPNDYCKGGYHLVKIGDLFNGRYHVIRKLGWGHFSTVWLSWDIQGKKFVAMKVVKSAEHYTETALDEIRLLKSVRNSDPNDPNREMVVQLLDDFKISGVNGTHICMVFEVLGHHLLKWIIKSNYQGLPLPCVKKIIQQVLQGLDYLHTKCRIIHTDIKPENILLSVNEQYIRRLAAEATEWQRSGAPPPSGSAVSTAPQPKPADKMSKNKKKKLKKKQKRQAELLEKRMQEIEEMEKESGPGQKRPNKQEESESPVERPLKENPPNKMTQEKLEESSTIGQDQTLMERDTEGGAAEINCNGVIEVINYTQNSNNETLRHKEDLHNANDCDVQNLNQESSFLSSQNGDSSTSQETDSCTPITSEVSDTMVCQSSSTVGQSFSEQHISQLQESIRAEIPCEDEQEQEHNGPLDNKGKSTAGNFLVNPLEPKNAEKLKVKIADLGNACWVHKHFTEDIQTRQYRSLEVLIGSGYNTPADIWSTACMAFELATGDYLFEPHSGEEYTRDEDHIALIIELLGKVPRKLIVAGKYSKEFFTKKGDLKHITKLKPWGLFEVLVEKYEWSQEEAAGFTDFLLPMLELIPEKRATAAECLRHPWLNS
In short: as §1

FGFR1(V561M) (h) = FGFR1(V561M) (h) (Homo sapiens, UniProt P11362, V561M)
FGFR1(V561M) (h), sequence (P11362 22-822 V561M): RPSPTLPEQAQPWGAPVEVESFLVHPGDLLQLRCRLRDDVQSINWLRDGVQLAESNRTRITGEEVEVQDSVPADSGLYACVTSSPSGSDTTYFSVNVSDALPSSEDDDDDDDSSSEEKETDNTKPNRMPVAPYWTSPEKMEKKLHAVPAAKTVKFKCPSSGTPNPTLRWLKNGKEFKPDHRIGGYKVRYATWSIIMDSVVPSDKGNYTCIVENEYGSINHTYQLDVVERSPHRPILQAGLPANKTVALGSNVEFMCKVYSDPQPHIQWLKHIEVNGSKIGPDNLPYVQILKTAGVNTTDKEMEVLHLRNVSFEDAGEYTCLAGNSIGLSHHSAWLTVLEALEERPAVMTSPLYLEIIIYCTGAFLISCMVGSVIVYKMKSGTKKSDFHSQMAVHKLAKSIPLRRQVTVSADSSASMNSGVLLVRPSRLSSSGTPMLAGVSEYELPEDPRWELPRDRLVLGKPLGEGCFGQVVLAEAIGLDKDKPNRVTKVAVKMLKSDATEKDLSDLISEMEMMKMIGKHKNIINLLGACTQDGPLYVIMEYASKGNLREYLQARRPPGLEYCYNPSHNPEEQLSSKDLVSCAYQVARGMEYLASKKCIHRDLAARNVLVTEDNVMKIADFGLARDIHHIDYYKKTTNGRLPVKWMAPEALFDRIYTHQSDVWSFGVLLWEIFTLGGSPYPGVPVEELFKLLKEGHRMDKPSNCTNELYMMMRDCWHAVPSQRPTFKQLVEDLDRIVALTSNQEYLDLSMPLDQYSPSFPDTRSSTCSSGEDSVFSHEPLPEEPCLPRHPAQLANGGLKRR
In short: as §1

DMPK (h) = target: T5, DMPK (h) (Homo sapiens, UniProt Q09013)
T5 construct: purchased Millipore
T5 sequence (Q09013 1-629): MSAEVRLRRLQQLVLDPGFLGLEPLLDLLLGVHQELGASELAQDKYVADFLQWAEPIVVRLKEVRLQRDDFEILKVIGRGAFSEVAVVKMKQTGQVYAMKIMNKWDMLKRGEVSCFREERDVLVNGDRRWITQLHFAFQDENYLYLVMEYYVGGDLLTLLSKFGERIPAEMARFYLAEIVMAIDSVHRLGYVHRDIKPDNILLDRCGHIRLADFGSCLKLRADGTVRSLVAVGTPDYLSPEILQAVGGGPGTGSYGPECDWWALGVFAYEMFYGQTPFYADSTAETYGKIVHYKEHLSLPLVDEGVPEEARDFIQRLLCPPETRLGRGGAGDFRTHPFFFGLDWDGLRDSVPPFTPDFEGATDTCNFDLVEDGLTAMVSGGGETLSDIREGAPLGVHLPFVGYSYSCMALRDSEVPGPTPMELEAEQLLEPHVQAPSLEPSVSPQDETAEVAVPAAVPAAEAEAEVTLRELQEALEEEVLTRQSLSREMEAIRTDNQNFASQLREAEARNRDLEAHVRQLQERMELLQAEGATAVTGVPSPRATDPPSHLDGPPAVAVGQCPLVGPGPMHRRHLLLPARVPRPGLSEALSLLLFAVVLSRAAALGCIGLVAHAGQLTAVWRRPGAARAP
In short: as §1

Sequence	% activity (PhKγ2 (h)) [%]	% activity (ALK4 (h)) [%]	% activity (PKCβI (h)) [%]	% activity (SAPK3 (h)) [%]	% activity (Flt1 (h)) [%]	% activity (SRPK1 (h)) [%]	% activity (FGFR1(V561M) (h)) [%]	% activity (DMPK (h)) [%]
FAKLAARLYRKALARQLGVAA [MMI-0300]	46	140	78	84	69	90	74	59
HRRIKAWLKKIKALARQLGVAA (Mammalian) [MMI-0500]	16	81	1	24	27	80	–	12
KAFAKLAARLYRKALARQLGVAA [MMI-0400]	38	130	78	79	48	96	74	54
YARAAARQARAKALNRQLGVA (Mammalian) [MMI-0200]	86	152	98	97	96	93	72	66
